According to patent publication US20120294865A1 (REGENTS OF THE UNIVERSITY OF MICHIGAN, published 2012):
Values belong to the binder of their own block, whether it stands above or below them.

Key:
[1] = biological target: T1, peptide of SEQ ID NO: 32 (YANNPRVVFNLNTYK) (human); experiment: peptide microarray, fluorescent secondary antibody
T1 construct: 15-mer on a peptide microarray (ProImmune)
T1 peptide: YANNPRVVFNLNTYK
Method: (§1) Epitope mapping was performed by incubating monoclonal antibody (mAb) samples with a peptide microarray, followed by incubation with a fluorescent-labelled secondary antibody. After washing, the microarray was scanned in a high-resolution scanning system. The peptide microarray consisted of a set of 15-mer peptides overlapping by 10 residues taken from the human alpha-2 integrin subunit (Genbank accession number AAM34795.1; amino acid residues 1-1133 were used). Peptide arrays, antibody incubations, scanning and data analysis were generated by ProImmune Inc, 4281 Express Lane, Suite L2378, Sarasota, Fla. 34238.

[2] = biological target: T2, peptide of SEQ ID NO: 33 (AIASIPTERYFFNVS) (human); experiment: peptide microarray, fluorescent secondary antibody
T2 construct: 15-mer on a peptide microarray (ProImmune)
T2 peptide: AIASIPTERYFFNVS
Method: as §1

- binding result [1]: binds
- binding result [2]: binds
B1: Ab 770.8 (antibody, V domains shown)
VH: EVKLEESGTVLARPGASVKMSCKASGYSFTSYWMHWVKQRPGQGLEWIGAFYPGNSEDKYNENFKIKAKLTAVTSVNTVYMELSSLTSEDSAVYYCTRGTTLVAPGFDVWGAGTTVTVSS
VL: DIVMTQSPAILSVSPGERVSFSCRASQSIGTSIHWYQQRTNGSPRLLIKYVSESISGIPSRFSGSGSGTDFTLTINSVESEDIADYYCQHSNRWPLTFGAGTKLELKR
notes: Mouse monoclonal antibody from a hybridoma, used as ascites or purified

- binding result [1]: binds
- binding result [2]: binds
B2: Ab 778.17 (antibody, V domains shown)
VH: QVQLQQPGAELVRPGTSVKLSCKASGYTFASYWMNWVSQRPEQGLEWIGRIDPYDSETHYNQKFKDKAILTVDKSSSTAYIQLNSLTSEDSAVYYCARLGRGPFAYWGQGTLVTVSA
VL: DIVMTQTPTSLAVSLGQRATISCRASESVDSYDNSFMYWYQQKPGQPPKLLIYFASNLESGVPARFSGSGSRTDFTLTIDPVEADDAATYYCQQNNEDPYTFGGGTKLEIKR
notes: Mouse monoclonal antibody from a hybridoma
